This data set deals with Escherichia coli TOP10. Nature of the data set: shrunken log2 fold change of peptide-encoding DNA abundance (4.5 h post-induction vs induction); higher = less antimicrobial activity (less host growth inhibition). The note with it: time post-induction: 4.5 h; library: site-saturation at positions 5, 18, 19, 20.
Regarding RRIRHRPPRLPRPRPRPIFWPRP, the “shrunken log2 fold change” value is -0.0136.

In the case of RRIRYRPPRLPRPRPRPNYLPRP, the “shrunken log2 fold change” value is -0.161.

RRIRGRPPRLPRPRPRPGQVPRP: the “shrunken log2 fold change” value came out at 0.11.

For RRIRWRPPRLPRPRPRPNQEPRP, the “shrunken log2 fold change” value is -0.119.

For the sequence RRIRPRPPRLPRPRPRPLSFPRP, the “shrunken log2 fold change” value is -0.132.

For RRIRMRPPRLPRPRPRPWVWPRP, the “shrunken log2 fold change” value was determined as 0.169.

As for RRIRCRPPRLPRPRPRPYHKPRP, the “shrunken log2 fold change” value is -0.743.

Regarding RRIRIRPPRLPRPRPRPRIGPRP, the “shrunken log2 fold change” value is -0.0469.

For RRIRDRPPRLPRPRPRPWWTPRP, the “shrunken log2 fold change” value is -0.327.

RRIRHRPPRLPRPRPRPEFTPRP: the “shrunken log2 fold change” value was -0.0939.

Regarding RRIRRRPPRLPRPRPRPQNYPRP, the “shrunken log2 fold change” value is -0.304.

Consider RRIRMRPPRLPRPRPRPCCEPRP, for which the “shrunken log2 fold change” value was 0.192.

On to RRIRVRPPRLPRPRPRPSHHPRP, for which the “shrunken log2 fold change” value was -0.448.

Consider RRIRVRPPRLPRPRPRPDRDPRP, for which the “shrunken log2 fold change” value was found to be 0.0414.

For the sequence RRIRQRPPRLPRPRPRPRFLPRP, the “shrunken log2 fold change” value was -0.0439.

Consider RRIRQRPPRLPRPRPRPFYTPRP, for which the “shrunken log2 fold change” value was -0.589.

For the sequence RRIRSRPPRLPRPRPRPMRGPRP, the “shrunken log2 fold change” value was 0.944.

Consider RRIRHRPPRLPRPRPRPIIEPRP, for which the “shrunken log2 fold change” value amounted to 0.0811.

As for RRIRSRPPRLPRPRPRPWDSPRP, the “shrunken log2 fold change” value was -0.729.

For RRIRERPPRLPRPRPRPRRSPRP, the “shrunken log2 fold change” value was -0.021.

RRIRCRPPRLPRPRPRPELEPRP: the “shrunken log2 fold change” value was found to be 0.285.

With RRIRPRPPRLPRPRPRPAPCPRP, the “shrunken log2 fold change” value stood at 0.236.

For the sequence RRIRKRPPRLPRPRPRPYHMPRP, the “shrunken log2 fold change” value was -0.0573.

For RRIRVRPPRLPRPRPRPVENPRP, the “shrunken log2 fold change” value amounted to 0.02.

As to RRIRIRPPRLPRPRPRPFQNPRP, the “shrunken log2 fold change” value is -0.296.

Consider RRIRVRPPRLPRPRPRPRAQPRP, for which the “shrunken log2 fold change” value came to 0.126.

RRIRDRPPRLPRPRPRPGKWPRP: the “shrunken log2 fold change” value was -0.00965.

Turning to RRIRPRPPRLPRPRPRPKNHPRP, the “shrunken log2 fold change” value is -0.282.

Take RRIRSRPPRLPRPRPRPNPIPRP: the “shrunken log2 fold change” value amounted to 0.0127.

Turning to RRIRYRPPRLPRPRPRPHYNPRP, the “shrunken log2 fold change” value was -1.18.

Turning to RRIRPRPPRLPRPRPRPCTGPRP, the “shrunken log2 fold change” value is -0.00227.

In the case of RRIRCRPPRLPRPRPRPIHAPRP, the “shrunken log2 fold change” value is -0.0479.

On to RRIRGRPPRLPRPRPRPSASPRP, for which the “shrunken log2 fold change” value is 1.77.

With RRIRTRPPRLPRPRPRPSAIPRP, the “shrunken log2 fold change” value was -0.979.

Turning to RRIRLRPPRLPRPRPRPARSPRP, the “shrunken log2 fold change” value came out at 0.343.

With RRIRPRPPRLPRPRPRPGWVPRP, the “shrunken log2 fold change” value was 0.405.

Consider RRIRRRPPRLPRPRPRPKAKPRP, for which the “shrunken log2 fold change” value turned out to be 0.0788.

On to RRIRGRPPRLPRPRPRPTTNPRP, for which the “shrunken log2 fold change” value stood at 0.878.

Turning to RRIRARPPRLPRPRPRPTVAPRP, the “shrunken log2 fold change” value amounted to 0.779.

Regarding RRIRERPPRLPRPRPRPMYAPRP, the “shrunken log2 fold change” value was -0.246.

RRIRCRPPRLPRPRPRPSGWPRP: the “shrunken log2 fold change” value was 0.0712.

As to RRIRVRPPRLPRPRPRPKCAPRP, the “shrunken log2 fold change” value worked out at 0.0145.

Turning to RRIRSRPPRLPRPRPRPEILPRP, the “shrunken log2 fold change” value was -0.0652.

Take RRIRHRPPRLPRPRPRPNMTPRP: the “shrunken log2 fold change” value was found to be 0.0729.

For the sequence RRIRHRPPRLPRPRPRPTDAPRP, the “shrunken log2 fold change” value came out at 0.0615.

In the case of RRIRERPPRLPRPRPRPTTFPRP, the “shrunken log2 fold change” value is -0.367.

Consider RRIRVRPPRLPRPRPRPAGKPRP, for which the “shrunken log2 fold change” value was -0.308.

On to RRIRQRPPRLPRPRPRPRVTPRP, for which the “shrunken log2 fold change” value is 0.238.

As to RRIRCRPPRLPRPRPRPSAYPRP, the “shrunken log2 fold change” value was -0.406.

For RRIRVRPPRLPRPRPRPGTNPRP, the “shrunken log2 fold change” value was -0.254.

Consider RRIRGRPPRLPRPRPRPQDWPRP, for which the “shrunken log2 fold change” value worked out at 0.639.

In the case of RRIRWRPPRLPRPRPRPFCPPRP, the “shrunken log2 fold change” value is -0.318.

For RRIRCRPPRLPRPRPRPFDRPRP, the “shrunken log2 fold change” value was -0.115.

With RRIRCRPPRLPRPRPRPIYGPRP, the “shrunken log2 fold change” value is -0.203.

Turning to RRIRDRPPRLPRPRPRPAHVPRP, the “shrunken log2 fold change” value is -0.0599.

For RRIRGRPPRLPRPRPRPTTLPRP, the “shrunken log2 fold change” value was determined as 0.507.

Regarding RRIRHRPPRLPRPRPRPFDGPRP, the “shrunken log2 fold change” value is -0.258.

As for RRIRVRPPRLPRPRPRPSQYPRP, the “shrunken log2 fold change” value was -0.389.

Turning to RRIRVRPPRLPRPRPRPISGPRP, the “shrunken log2 fold change” value was -0.118.

For RRIRHRPPRLPRPRPRPRWPPRP, the “shrunken log2 fold change” value was 2.25.

With RRIRCRPPRLPRPRPRPTPCPRP, the “shrunken log2 fold change” value turned out to be 0.281.

As for RRIRIRPPRLPRPRPRPPPVPRP, the “shrunken log2 fold change” value is 0.414.

For RRIRIRPPRLPRPRPRPSMMPRP, the “shrunken log2 fold change” value is -0.886.

For the sequence RRIRRRPPRLPRPRPRPHTLPRP, the “shrunken log2 fold change” value was -0.182.

With RRIRQRPPRLPRPRPRPWNCPRP, the “shrunken log2 fold change” value was -0.0444.

On to RRIRCRPPRLPRPRPRPGELPRP, for which the “shrunken log2 fold change” value was determined as 0.139.

RRIRIRPPRLPRPRPRPVFIPRP: the “shrunken log2 fold change” value was -0.472.

For the sequence RRIRHRPPRLPRPRPRPRQLPRP, the “shrunken log2 fold change” value stood at 0.0862.

In the case of RRIRHRPPRLPRPRPRPCEEPRP, the “shrunken log2 fold change” value amounted to 0.0167.

Take RRIRRRPPRLPRPRPRPMGVPRP: the “shrunken log2 fold change” value stood at 0.324.

For the sequence RRIRYRPPRLPRPRPRPDIHPRP, the “shrunken log2 fold change” value was -0.549.

As for RRIRMRPPRLPRPRPRPWAEPRP, the “shrunken log2 fold change” value worked out at 0.628.

As to RRIRWRPPRLPRPRPRPKQTPRP, the “shrunken log2 fold change” value turned out to be 0.578.

With RRIRARPPRLPRPRPRPKPMPRP, the “shrunken log2 fold change” value turned out to be 0.831.

For RRIRQRPPRLPRPRPRPFDQPRP, the “shrunken log2 fold change” value is -0.0498.

As to RRIRNRPPRLPRPRPRPWPIPRP, the “shrunken log2 fold change” value is -0.0597.

Take RRIRFRPPRLPRPRPRPVPCPRP: the “shrunken log2 fold change” value is 0.0335.

In the case of RRIRSRPPRLPRPRPRPFNRPRP, the “shrunken log2 fold change” value was -0.363.

In the case of RRIRGRPPRLPRPRPRPYVQPRP, the “shrunken log2 fold change” value was -0.122.

In the case of RRIRTRPPRLPRPRPRPHPDPRP, the “shrunken log2 fold change” value is -0.00834.

Take RRIRQRPPRLPRPRPRPQMPPRP: the “shrunken log2 fold change” value was -1.26.

As to RRIRARPPRLPRPRPRPWRKPRP, the “shrunken log2 fold change” value came out at 0.0387.

As to RRIRSRPPRLPRPRPRPYRTPRP, the “shrunken log2 fold change” value amounted to 0.00951.

RRIRSRPPRLPRPRPRPELAPRP: the “shrunken log2 fold change” value worked out at 0.929.

Regarding RRIRARPPRLPRPRPRPCPKPRP, the “shrunken log2 fold change” value was -0.0619.

On to RRIRGRPPRLPRPRPRPKTDPRP, for which the “shrunken log2 fold change” value is 0.797.

Take RRIRERPPRLPRPRPRPNFKPRP: the “shrunken log2 fold change” value is -0.181.

For RRIRRRPPRLPRPRPRPCEVPRP, the “shrunken log2 fold change” value was -0.0207.

Consider RRIRYRPPRLPRPRPRPYMDPRP, for which the “shrunken log2 fold change” value is -0.14.

On to RRIRRRPPRLPRPRPRPDSTPRP, for which the “shrunken log2 fold change” value stood at 0.187.

For the sequence RRIRNRPPRLPRPRPRPTTNPRP, the “shrunken log2 fold change” value is 0.365.

As for RRIRCRPPRLPRPRPRPFWNPRP, the “shrunken log2 fold change” value was -0.278.

Take RRIRTRPPRLPRPRPRPTVHPRP: the “shrunken log2 fold change” value is -0.199.

On to RRIRVRPPRLPRPRPRPDGCPRP, for which the “shrunken log2 fold change” value is 0.101.

As for RRIRQRPPRLPRPRPRPMFFPRP, the “shrunken log2 fold change” value is -0.0364.

Turning to RRIRHRPPRLPRPRPRPAPQPRP, the “shrunken log2 fold change” value was found to be 0.588.

Take RRIRFRPPRLPRPRPRPCGDPRP: the “shrunken log2 fold change” value was -0.01.

Turning to RRIRYRPPRLPRPRPRPAHHPRP, the “shrunken log2 fold change” value was -0.602.

As for RRIRHRPPRLPRPRPRPCGRPRP, the “shrunken log2 fold change” value is -0.0197.

For RRIRSRPPRLPRPRPRPWLCPRP, the “shrunken log2 fold change” value is -0.0753.

On to RRIRARPPRLPRPRPRPCIYPRP, for which the “shrunken log2 fold change” value was -0.0979.

On to RRIRRRPPRLPRPRPRPGFHPRP, for which the “shrunken log2 fold change” value was 0.0982.

As to RRIRARPPRLPRPRPRPCTIPRP, the “shrunken log2 fold change” value is -0.000283.

As to RRIRQRPPRLPRPRPRPPPHPRP, the “shrunken log2 fold change” value stood at 0.737.

In the case of RRIRWRPPRLPRPRPRPCPFPRP, the “shrunken log2 fold change” value was -0.646.

For RRIRMRPPRLPRPRPRPHICPRP, the “shrunken log2 fold change” value is -0.0377.

For the sequence RRIRRRPPRLPRPRPRPVFCPRP, the “shrunken log2 fold change” value stood at 0.291.

For RRIRYRPPRLPRPRPRPQCVPRP, the “shrunken log2 fold change” value is -0.127.

With RRIRYRPPRLPRPRPRPPFQPRP, the “shrunken log2 fold change” value was -0.22.

As to RRIRYRPPRLPRPRPRPCVGPRP, the “shrunken log2 fold change” value is -1.87.

RRIRTRPPRLPRPRPRPDFQPRP: the “shrunken log2 fold change” value came to 0.00444.

Take RRIRGRPPRLPRPRPRPVRIPRP: the “shrunken log2 fold change” value was 0.536.

For RRIRHRPPRLPRPRPRPFCTPRP, the “shrunken log2 fold change” value was -0.294.

For the sequence RRIRFRPPRLPRPRPRPTIKPRP, the “shrunken log2 fold change” value was -0.223.

Turning to RRIRLRPPRLPRPRPRPNGEPRP, the “shrunken log2 fold change” value was 0.00184.

In the case of RRIRGRPPRLPRPRPRPLCQPRP, the “shrunken log2 fold change” value was 0.712.

For RRIRNRPPRLPRPRPRPIRTPRP, the “shrunken log2 fold change” value was -0.176.

Turning to RRIRWRPPRLPRPRPRPTYYPRP, the “shrunken log2 fold change” value was -0.463.

For the sequence RRIRYRPPRLPRPRPRPERIPRP, the “shrunken log2 fold change” value was -0.21.

As for RRIRWRPPRLPRPRPRPFKFPRP, the “shrunken log2 fold change” value was -0.174.

For the sequence RRIRMRPPRLPRPRPRPAVAPRP, the “shrunken log2 fold change” value was found to be 1.04.

Take RRIRKRPPRLPRPRPRPVSWPRP: the “shrunken log2 fold change” value was found to be 0.821.

As to RRIRLRPPRLPRPRPRPQWWPRP, the “shrunken log2 fold change” value was found to be 0.491.

On to RRIRVRPPRLPRPRPRPYSMPRP, for which the “shrunken log2 fold change” value was -0.692.

With RRIRIRPPRLPRPRPRPFFTPRP, the “shrunken log2 fold change” value was -0.312.

These data come from the supplement of paper PMC9112550, “Optimization of the antimicrobial peptide Bac7 by deep mutational scanning” (BMC Biology, 2022).
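Further: peptides expressed intracellularly from a pBAD plasmid library in pooled LB shake-flask culture, induced with 0.3% L-arabinose, DNA abundance read by NGS, three biological replicates, DESeq2 with apeglm shrinkage.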
